Data: publication PMC9098913, “In vitro reconstitution of Escherichia coli divisome activation” (Nature Communications, 2022)

Experiment: Diffusion coefficient of His-tagged FtsAs and His-SUMO on Tris-NTA membranes (FRAP)
Method: To study colocalization of His-tagged variants of FtsA, 0.5–1 µM of Cy5 labelled His-tagged FtsAs were added to the chamber, incubated for 20 min and washed 6x with reaction buffer. […] To control the density of membrane-bound FtsA, SUVs without and with Tris-NTA lipids were mixed to obtain the respective Tris-NTA concentrations. To perform FRET/FRAP experiments, equimolar concentrations of Cy3 and Cy5 labelled His-tagged FtsAs (total 0.5–1 µM) or His-SUMO-Cys were added to a chamber and treated as above. […] FRAP experiments were performed as described before.
Bleaching the acceptor dye leads to an increase in the donor intensity, which can be used to quantify the Foerster Resonance energy transfer (FRET)[48]. FRET efficiency was quantified with E%=Ipost/Ipost+Ipre⋅100 , where Ipost is the intensity of the […] and Ipre is the […]. […] To extract the contribution of both processes, we adjusted a routine recently published by Gerganova et al.[33]. In short, the code provides the contribution of both modes of recovery by analysing the shape of the fluorescence recovery profile. […] Contribution of diffusion leads to a change of the slope of the outer borders of the bleached region (S4h right). Thus, by measuring the change of the slope of the border recovery, diffusion and simple on/off binding can be distinguished. We developed “FRAPdiff”, a graphical user interface, which uses the original fit routine by David Rutkowski. It can be used directly on.tiff movies with annotated bleach regions as ImageJ ROIs. In addition, we added optional bleach correction, user selectable projection axis (x or y), and optional mirroring of the recovery profiles, if bleaching was not symmetric. The original fit routine for estimating the recovery and diffusion dynamics can be found at https://github.com/davidmrutkowski/1DReflectingDiffusion. FRAPdiff is available at 10.5281/zenodo.6400639[49] under the GPLv3 open-source license.

B1: FtsA R286W-His6: FtsA R286W (1-405) with amphipathic helix replaced by C-terminal His-tag (protein)
chain: MIKATDRKLVVGLEIGTAKVAALVGEVLPDGMVNIIGVGSCPSRGMDKGGVNDLESVVKCVQRAIDQAELMADCQISSVYLALSGKHISCQNEIGMVPISEEEVTQEDVENVVHTAKSVRVRDEHRVLHVIPQEYAIDYQEGIKNPVGLSGVRMQAKVHLITCHNDMAKNIVKAVERCGLKVDQLIFAGLASSYSVLTEDERELGVCVVDIGGGTMDIAVYTGGALRHTKVIPYAGNVVTSDIAYAFGTPPSDAEAIKVRHGCALGSIVGKDESVEVPSVGGRPPWSLQRQTLAEVIEPRYTELLNLVNEEILQLQEKLRQQGVKHHLAAGIVLTGGAAQIEGLAACAQRVFHTQVRIGAPLNITGLTDYAQEPYYSTAVGLLHYGKESHLNGEAEVEKRVTASV
modifications: Cy3 or Cy5 at the N-terminus in the labelled form (sortagging as for native FtsA); left off: TwinStrep-SUMO, N-terminal, cleaved | 5xGlycine tag, N-terminal, kept | His6, C-terminal, kept
Diffusion Coefficient (0.1% Tris NTA, + FtsZ, mean (n: WT 2, R286W 3)): 0.17 µm2/s
Diffusion Coefficient (0.1% Tris NTA, + FtsZ, replicate Exp1): 0.12 µm2/s
Diffusion Coefficient (0.1% Tris NTA, + FtsZ, replicate Exp2): 0.17 µm2/s
Diffusion Coefficient (0.1% Tris NTA, + FtsZ, replicate Exp3): 0.22 µm2/s
Diffusion Coefficient (0.1% Tris NTA, without FtsZ, mean (n: WT 2, R286W 3, SUMO 2)): 0.50 µm2/s
Diffusion Coefficient (0.1% Tris NTA, without FtsZ, replicate Exp1): 0.48 µm2/s
Diffusion Coefficient (0.1% Tris NTA, without FtsZ, replicate Exp2): 0.53 µm2/s
Diffusion Coefficient (0.1% Tris NTA, without FtsZ, replicate Exp3): 0.50 µm2/s
Diffusion Coefficient (0.4% Tris NTA, + FtsZ, mean (n: WT 2, R286W 3)): 0.08 µm2/s
Diffusion Coefficient (0.4% Tris NTA, + FtsZ, replicate Exp1): 0.12 µm2/s
Diffusion Coefficient (0.4% Tris NTA, + FtsZ, replicate Exp2): 0.11 µm2/s
Diffusion Coefficient (0.4% Tris NTA, + FtsZ, replicate Exp3): 0.0041 µm2/s
Diffusion Coefficient (0.4% Tris NTA, without FtsZ, mean (n: WT 2, R286W 3, SUMO 3)): 0.44 µm2/s
Diffusion Coefficient (0.4% Tris NTA, without FtsZ, replicate Exp1): 0.31 µm2/s
Diffusion Coefficient (0.4% Tris NTA, without FtsZ, replicate Exp2): 0.56 µm2/s
Diffusion Coefficient (0.4% Tris NTA, without FtsZ, replicate Exp3): 0.45 µm2/s
Diffusion Coefficient (0.6% Tris NTA, + FtsZ, mean (n: WT 5, R286W 5)): 0.0744 µm2/s
Diffusion Coefficient (0.6% Tris NTA, + FtsZ, replicate Exp1): 0.12 µm2/s
Diffusion Coefficient (0.6% Tris NTA, + FtsZ, replicate Exp2): 2.02e-8 µm2/s
Diffusion Coefficient (0.6% Tris NTA, + FtsZ, replicate Exp3): 9.38e-5 µm2/s
Diffusion Coefficient (0.6% Tris NTA, + FtsZ, replicate Exp4): 0.15 µm2/s
Diffusion Coefficient (0.6% Tris NTA, + FtsZ, replicate Exp5): 0.11 µm2/s
Diffusion Coefficient (0.6% Tris NTA, without FtsZ, mean (n: WT 4, R286W 5, SUMO 4)): 0.33 µm2/s
Diffusion Coefficient (0.6% Tris NTA, without FtsZ, replicate Exp1): 0.43 µm2/s
Diffusion Coefficient (0.6% Tris NTA, without FtsZ, replicate Exp2): 0.38 µm2/s
Diffusion Coefficient (0.6% Tris NTA, without FtsZ, replicate Exp3): 0.25 µm2/s
Diffusion Coefficient (0.6% Tris NTA, without FtsZ, replicate Exp4): 0.30 µm2/s
Diffusion Coefficient (0.6% Tris NTA, without FtsZ, replicate Exp5): 0.28 µm2/s
Diffusion Coefficient (0.8% Tris NTA, + FtsZ, mean): 0.04 µm2/s
Diffusion Coefficient (0.8% Tris NTA, + FtsZ, replicate Exp1): 0.07 µm2/s
Diffusion Coefficient (0.8% Tris NTA, + FtsZ, replicate Exp2): 0.02 µm2/s
Diffusion Coefficient (0.8% Tris NTA, + FtsZ, replicate Exp3): 0.0271 µm2/s
Diffusion Coefficient (0.8% Tris NTA, + FtsZ, replicate Exp4): 0.0336 µm2/s
Diffusion Coefficient (0.8% Tris NTA, + FtsZ, replicate Exp5): 0.0229 µm2/s
Diffusion Coefficient (0.8% Tris NTA, + FtsZ, replicate Exp6): 0.06 µm2/s
Diffusion Coefficient (0.8% Tris NTA, without FtsZ, mean): 0.22 µm2/s
Diffusion Coefficient (0.8% Tris NTA, without FtsZ, replicate Exp1): 0.17 µm2/s
Diffusion Coefficient (0.8% Tris NTA, without FtsZ, replicate Exp2): 0.22 µm2/s
Diffusion Coefficient (0.8% Tris NTA, without FtsZ, replicate Exp3): 0.26 µm2/s
Diffusion Coefficient (0.8% Tris NTA, without FtsZ, replicate Exp4): 0.17 µm2/s
Diffusion Coefficient (0.8% Tris NTA, without FtsZ, replicate Exp5): 0.30 µm2/s
Diffusion Coefficient (0.8% Tris NTA, without FtsZ, replicate Exp6): 0.20 µm2/s
Diffusion Coefficient (1% Tris NTA, + FtsZ, mean): 0.04 µm2/s
Diffusion Coefficient (1% Tris NTA, + FtsZ, replicate Exp1): 0.0437 µm2/s
Diffusion Coefficient (1% Tris NTA, + FtsZ, replicate Exp2): 0.0187 µm2/s
Diffusion Coefficient (1% Tris NTA, + FtsZ, replicate Exp3): 0.046 µm2/s
Diffusion Coefficient (1% Tris NTA, + FtsZ, replicate Exp4): 0.0142 µm2/s
Diffusion Coefficient (1% Tris NTA, + FtsZ, replicate Exp5): 0.03 µm2/s
Diffusion Coefficient (1% Tris NTA, + FtsZ, replicate Exp6): 0.09 µm2/s
Diffusion Coefficient (1% Tris NTA, without FtsZ, mean): 0.22 µm2/s
Diffusion Coefficient (1% Tris NTA, without FtsZ, replicate Exp1): 0.32 µm2/s
Diffusion Coefficient (1% Tris NTA, without FtsZ, replicate Exp2): 0.13 µm2/s
Diffusion Coefficient (1% Tris NTA, without FtsZ, replicate Exp3): 0.42 µm2/s
Diffusion Coefficient (1% Tris NTA, without FtsZ, replicate Exp4): 0.24 µm2/s
Diffusion Coefficient (1% Tris NTA, without FtsZ, replicate Exp5): 0.09 µm2/s
Diffusion Coefficient (1% Tris NTA, without FtsZ, replicate Exp6): 0.14 µm2/s
Diffusion Coefficient (Tris 0.10 %, + FtsZ): 0.17 µm2/s
Diffusion Coefficient (Tris 0.10 %, without FtsZ): 0.50 µm2/s
Diffusion Coefficient (Tris 0.40 %, + FtsZ): 0.08 µm2/s
Diffusion Coefficient (Tris 0.40 %, without FtsZ): 0.44 µm2/s
Diffusion Coefficient (Tris 0.60 %, + FtsZ): 0.0744 µm2/s
Diffusion Coefficient (Tris 0.60 %, without FtsZ): 0.33 µm2/s
Diffusion Coefficient (Tris 0.80 %, + FtsZ): 0.04 µm2/s
Diffusion Coefficient (Tris 0.80 %, without FtsZ): 0.22 µm2/s
Diffusion Coefficient (Tris 1.00 %, + FtsZ): 0.04 µm2/s
Diffusion Coefficient (Tris 1.00 %, without FtsZ): 0.22 µm2/s
Diffusion Coefficient (Tris 2.00 %, + FtsZ): 0.02 µm2/s
Diffusion Coefficient (Tris 2.00 %, without FtsZ): 0.035 µm2/s
Diffusion Coefficient ([…] Tris NTA, + FtsZ, mean (n: WT 2, R286W 3)): 0.14 µm2/s
Diffusion Coefficient ([…] Tris NTA, + FtsZ, replicate Exp1): 0.34 µm2/s
Diffusion Coefficient ([…] Tris NTA, + FtsZ, replicate Exp2): 0.000447 µm2/s
Diffusion Coefficient ([…] Tris NTA, + FtsZ, replicate Exp3): 0.07 µm2/s
Diffusion Coefficient ([…] Tris NTA, without FtsZ, mean (n: WT 2, R286W 3, SUMO 3)): 0.42 µm2/s
Diffusion Coefficient ([…] Tris NTA, without FtsZ, replicate Exp1): 0.55 µm2/s
Diffusion Coefficient ([…] Tris NTA, without FtsZ, replicate Exp2): 0.25 µm2/s
Diffusion Coefficient ([…] Tris NTA, without FtsZ, replicate Exp3): 0.47 µm2/s
Diffusion Coefficient ([…] Tris-NTA, + N (FtsNcyto), mean): 4.17E-05 µm2/s
Diffusion Coefficient ([…] Tris-NTA, + N/Z, Exp. 1): 2.50E-03 µm2/s
Diffusion Coefficient ([…] Tris-NTA, + N/Z, Exp. 2): 2.00E-05 µm2/s
Diffusion Coefficient ([…] Tris-NTA, + N/Z, Exp. 3): 1.00E-05 µm2/s
Diffusion Coefficient ([…] Tris-NTA, + N/Z, mean): 8.43E-04 µm2/s
Diffusion Coefficient ([…] Tris-NTA, + N, Exp. 1): 7.50E-05 µm2/s
Diffusion Coefficient ([…] Tris-NTA, + N, Exp. 2): 3.00E-05 µm2/s
Diffusion Coefficient ([…] Tris-NTA, + N, Exp. 3): 2.00E-05 µm2/s
Diffusion Coefficient ([…] Tris-NTA, + Z (FtsZ), mean): 0.05 µm2/s
Diffusion Coefficient ([…] Tris-NTA, + Z, Exp. 1): 0.0229 µm2/s
Diffusion Coefficient ([…] Tris-NTA, + Z, Exp. 2): 0.04 µm2/s
Diffusion Coefficient ([…] Tris-NTA, + Z, Exp. 3): 0.08 µm2/s
Diffusion Coefficient ([…] Tris-NTA, alone, Exp. 1): 0.14 µm2/s
Diffusion Coefficient ([…] Tris-NTA, alone, Exp. 2): 0.0561 µm2/s
Diffusion Coefficient ([…] Tris-NTA, alone, Exp. 3): 0.26 µm2/s
Diffusion Coefficient ([…] Tris-NTA, alone, mean): 0.15 µm2/s
Diffusion Coefficient (with FtsNcyto, mean ± s.d., p-value 0.01): 8.43 × 10^−4 ± 1.17 × 10^−3 µm^2/s
Diffusion Coefficient (without FtsNcyto, mean ± s.d., p-value 0.01): 0.05 ± 0.04 µm^2/s
